Assay results taken from publication PMC11580931 (bioRxiv, 2024).

T1: 3-pHis peptide (biotin-aminocaproic acid-AGAG-3-pHis-AGAG)
T1 sequence (peptide, biotin-aminocaproic acid on the N-terminus; 3-phosphohistidine at position 5): AGAGHAGAG


Legend:
[1] = biological target: 3-pTza peptide (Biotin-AminocaproicAcid-AGAG-3-pTza-AGAG); experiment: BLI
[2] = biological target: 3-pHis form of ACLY (120 kDa) (Homo sapiens (HEK293T, endogenous), UniProt P53396, 3-phosphohistidine (residue not stated)); experiment: immunoblot
[3] = biological target: T1, 3-pHis peptide (biotin-aminocaproic acid-AGAG-3-pHis-AGAG); experiment: BLI

Chain of 3-pHis form of ACLY (120 kDa) (P53396 whole entry): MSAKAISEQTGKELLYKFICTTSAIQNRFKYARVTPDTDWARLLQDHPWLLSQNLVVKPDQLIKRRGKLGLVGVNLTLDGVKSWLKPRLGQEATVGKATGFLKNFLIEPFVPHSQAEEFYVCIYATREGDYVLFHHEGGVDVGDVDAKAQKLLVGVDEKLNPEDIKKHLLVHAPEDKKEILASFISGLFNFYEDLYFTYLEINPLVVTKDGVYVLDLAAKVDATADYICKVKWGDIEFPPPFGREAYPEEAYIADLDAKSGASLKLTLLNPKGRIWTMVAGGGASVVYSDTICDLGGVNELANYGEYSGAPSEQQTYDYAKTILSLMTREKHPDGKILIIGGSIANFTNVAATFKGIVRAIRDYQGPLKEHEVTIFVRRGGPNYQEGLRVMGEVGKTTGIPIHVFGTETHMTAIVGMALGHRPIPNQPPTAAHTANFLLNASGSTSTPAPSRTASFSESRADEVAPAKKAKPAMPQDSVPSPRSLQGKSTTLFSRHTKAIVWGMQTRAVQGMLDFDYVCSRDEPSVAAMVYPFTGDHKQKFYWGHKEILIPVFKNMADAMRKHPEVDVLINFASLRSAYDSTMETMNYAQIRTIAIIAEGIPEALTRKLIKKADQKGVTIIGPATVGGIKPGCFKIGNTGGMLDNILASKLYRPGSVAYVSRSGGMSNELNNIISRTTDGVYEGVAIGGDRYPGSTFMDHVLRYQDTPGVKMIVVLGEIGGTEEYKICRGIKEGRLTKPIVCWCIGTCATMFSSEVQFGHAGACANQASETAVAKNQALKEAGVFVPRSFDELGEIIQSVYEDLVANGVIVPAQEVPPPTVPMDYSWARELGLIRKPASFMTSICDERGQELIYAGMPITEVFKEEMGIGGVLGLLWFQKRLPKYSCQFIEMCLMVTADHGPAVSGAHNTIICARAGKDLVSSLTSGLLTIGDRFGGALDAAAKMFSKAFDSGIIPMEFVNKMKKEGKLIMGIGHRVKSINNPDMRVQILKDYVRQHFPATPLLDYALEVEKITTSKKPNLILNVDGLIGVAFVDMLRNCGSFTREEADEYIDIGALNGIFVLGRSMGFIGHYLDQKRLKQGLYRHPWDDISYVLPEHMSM

Binder | Kd [1] [nM] | koff [1] [s⁻¹] | kon [1] [M⁻¹ s⁻¹] | binding result [2] | Kd [3] [nM] | kon [3] [M⁻¹ s⁻¹] | koff [3] [s⁻¹]
hSC44 IgG (humanized version of rSC44) (antibody, V domains shown) VH: EVQLVESGGGLVQPGGSLRLSCTASGFSIDSYGFSWVRQAPGKGLEHIGYLTAGGRAFYASWAKSRSTITRNTNENTVTLKMNSLRAEDTAVYYCAKLGSGNPVAIWGQGTLVTVSS VL: DIQMTQSPSSLSASVGDRVTITCRASQSVWRNKNVAWYQQKPGKAPKRLIYAIASLYSGVPSRFSGSGSGTDFTLTISSLQPEDFATYYCVGHYGSENDAYYAFGQGTKVEIK | 1.2 | – | – | – | – | – | –
hSC44.31 IgG (antibody, V domains shown) VH: EVQLVESGGGLVQPGGSLRLSCTASGFSIDSYGFSWVRQAPGKGLEHIGYLTAGGRAFYASWAKSRSTITRNTNENTVTLKMNSLRAEDTAVYYCAKLGTGTPFAIWGQGTLVTVSS VL: DIQMTQSPSSLSASVGDRVTITCRASQSVWRNKYVAWYQQKPGKAPKRLIYAIASLYSGVPSRFSGSGSGTDFTLTISSLQPEDFATYYCVGHYGSENDAYYAFGQGTKVEIK | 2.71 | 3.98e-05 | 14700 | – | – | – | –
hSC44.1 IgG (antibody, V domains shown) VH: EVQLVESGGGLVQPGGSLRLSCTASGFSIDSYGFSWVRQAPGKGLEHIGYLTAGGRAFYASWAKSRSTITRNTNENTVTLKMNSLRAEDTAVYYCAKLGTGSPIAIWGQGTLVTVSS VL: DIQMTQSPSSLSASVGDRVTITCRASQSVWRNKNVAWYQQKPGKAPKRLIYAIASLYSGVPSRFSGSGSGTDFTLTISSLQPEDFATYYCVGHYGSENDAYYAFGQGTKVEIK | 0.588 | 8.32e-05 | 141000 | – | – | – | –
hSC44.28 IgG (antibody, V domains shown) VH: EVQLVESGGGLVQPGGSLRLSCTASGFSIDSYGFSWVRQAPGKGLEHIGYLTAGGRAFYASWAKSRSTITRNTNENTVTLKMNSLRAEDTAVYYCAKLGTGSPLAIWG VL: DIQMTQSPSSLSASVGDRVTITCRASQSVWRNKFVAWYQQKPGKAPKRLIYAIASLYSGVPSRFSGSGSGTDFTLTISSLQPEDFATYYCVGHYGSENDAYYAFGQGTKVEIK | 1.21 | – | 24900 | – | – | – | –
hSC44.22 IgG (antibody, V domains shown) VH: EVQLVESGGGLVQPGGSLRLSCTASGFSIDSYGFSWVRQAPGKGLEHIGYLTAGGRAFYASWAKSRSTITRNTNENTVTLKMNSLRAEDTAVYYCAKLGTGTPVAIWG VL: DIQMTQSPSSLSASVGDRVTITCRASQSVWRNKNVAWYQQKPGKAPKRLIYAIASLYSGVPSRFSGSGSGTDFTLTISSLQPEDFATYYCVGHYGSENDAYYAFGQGTKVEIK | 0.495 | 4.49e-05 | 90600 | – | – | – | –
hSC44.20.N32F^L IgG (antibody, V domains shown) VH: EVQLVESGGGLVQPGGSLRLSCTASGFSIDSYGFSWVRQAPGKGLEHIGYLTAGGRAFYASWAKSRSTITRNTNENTVTLKMNSLRAEDTAVYYCAKLGTGSRFAIWGQGTLVTVSS VL: DIQMTQSPSSLSASVGDRVTITCRASQSVWRNKFVAWYQQKPGKAPKRLIYAIASLYSGVPSRFSGSGSGTDFTLTISSLQPEDFATYYCVGHYGSENDAYYAFGQGTKVEIK | 1.54 | 5.73e-05 | 37300 | binds | 1.68 | 13900 | 1.64e-05
rSC44 IgG (rabbit SC44-8 anti-3-pTza/3-pHis mAb) (antibody, V domains shown) VH: QSVKESGRGLVQPGGSLTLTCTASGFSIDSYGFSWVRQAPGKGLEHIGYLTAGGRAFYASWAKSRSTITRNTNENTVTLKMTSLTAADTATYFCAKLGSGNPVAIWGPGTLVTVSS VL: QVLTQTPSFTSAAVGGTVTINCQSSQSVWRNKNLAWYQQKPGQPPKRLIYAIATLDSGVPSRFSGSGSGTQFTLTISDVQCDDAATYYCVGHYGSENDAYYAFGGGTEVVVK | – | – | – | binds | – | – | –

Next, values leading:

Kd [1] [nM] | koff [1] [s⁻¹] | kon [1] [M⁻¹ s⁻¹] | binding result [2] | Kd [3] [nM] | kon [3] [M⁻¹ s⁻¹] | koff [3] [s⁻¹] | Binder
< 0.001 | – | 257000 | binds | 21 | 75500 | – | hSC44.20 IgG (antibody, V domains shown) VH: EVQLVESGGGLVQPGGSLRLSCTASGFSIDSYGFSWVRQAPGKGLEHIGYLTAGGRAFYASWAKSRSTITRNTNENTVTLKMNSLRAEDTAVYYCAKLGTGSRFAIWGQGTLVTVSS VL: DIQMTQSPSSLSASVGDRVTITCRASQSVWRNKNVAWYQQKPGKAPKRLIYAIASLYSGVPSRFSGSGSGTDFTLTISSLQPEDFATYYCVGHYGSENDAYYAFGQGTKVEIK
0.185 | 6.66e-05 | 359000 | – | – | – | – | hSC44.8 IgG (antibody, V domains shown) VH: EVQLVESGGGLVQPGGSLRLSCTASGFSIDSYGFSWVRQAPGKGLEHIGYLTAGGRAFYASWAKSRSTITRNTNENTVTLKMNSLRAEDTAVYYCAKIGTGSRVAIWG VL: DIQMTQSPSSLSASVGDRVTITCRASQSVWRNKNVAWYQQKPGKAPKRLIYAIASLYSGVPSRFSGSGSGTDFTLTISSLQPEDFATYYCVGHYGSENDAYYAFGQGTKVEIK
0.352 | 1.43e-05 | 40700 | – | – | – | – | hSC44.3 IgG (antibody, V domains shown) VH: EVQLVESGGGLVQPGGSLRLSCTASGFSIDSYGFSWVRQAPGKGLEHIGYLTAGGRAFYASWAKSRSTITRNTNENTVTLKMNSLRAEDTAVYYCAKIGSGSPVAIWG VL: DIQMTQSPSSLSASVGDRVTITCRASQSVWRNKNVAWYQQKPGKAPKRLIYAIASLYSGVPSRFSGSGSGTDFTLTISSLQPEDFATYYCVGHYGSENDAYYAFGQGTKVEIK
0.405 | 7.37e-05 | 182000 | – | – | – | – | hSC44.13 IgG (antibody, V domains shown) VH: EVQLVESGGGLVQPGGSLRLSCTASGFSIDSYGFSWVRQAPGKGLEHIGYLTAGGRAFYASWAKSRSTITRNTNENTVTLKMNSLRAEDTAVYYCAKLGTGSPVAIWG VL: DIQMTQSPSSLSASVGDRVTITCRASQSVWRNKNVAWYQQKPGKAPKRLIYAIASLYSGVPSRFSGSGSGTDFTLTISSLQPEDFATYYCVGHYGSENDAYYAFGQGTKVEIK
< 0.001 | – | 35100 | – | 9.5 | 8880 | 2.61e-05 | hSC44.20.N32Y^L IgG (antibody, V domains shown) VH: EVQLVESGGGLVQPGGSLRLSCTASGFSIDSYGFSWVRQAPGKGLEHIGYLTAGGRAFYASWAKSRSTITRNTNENTVTLKMNSLRAEDTAVYYCAKLGTGSRFAIWGQGTLVTVSS VL: DIQMTQSPSSLSASVGDRVTITCRASQSVWRNKYVAWYQQKPGKAPKRLIYAIASLYSGVPSRFSGSGSGTDFTLTISSLQPEDFATYYCVGHYGSENDAYYAFGQGTKVEIK
